Patent publication US20100317566A1 (MOREHOUSE SCHOOL OF MEDICINE, published 2010)

Key:
Assay in all cases: FLAG-peptide resin pulldown from Jurkat lysate, SDS-PAGE, mass spectrometry
GRP78 = target: T1, GRP78 (UniProt P11021 19-654)
T1 construct: Endogenous protein pulled down from Jurkat cell lysate, identified by mass spectrometry

Mortalin/GRP75 = target: T2, Mortalin/GRP75 (UniProt P38646 47-679)
T2 construct: Endogenous protein pulled down from Jurkat cell lysate, identified by mass spectrometry and by Western blot (~75 kDa); also called glucose-regulated protein 75

Vimentin = target: T3, Vimentin (UniProt P08670 2-466)
T3 construct: Endogenous protein pulled down from Jurkat cell lysate, identified by mass spectrometry

HSC70 = target: T4, HSC70 (UniProt P11142 2-646)
T4 construct: Endogenous protein pulled down from Jurkat cell lysate, identified by mass spectrometry

Measured: binding result

T2 sequence (P38646 47-679 limits assumed): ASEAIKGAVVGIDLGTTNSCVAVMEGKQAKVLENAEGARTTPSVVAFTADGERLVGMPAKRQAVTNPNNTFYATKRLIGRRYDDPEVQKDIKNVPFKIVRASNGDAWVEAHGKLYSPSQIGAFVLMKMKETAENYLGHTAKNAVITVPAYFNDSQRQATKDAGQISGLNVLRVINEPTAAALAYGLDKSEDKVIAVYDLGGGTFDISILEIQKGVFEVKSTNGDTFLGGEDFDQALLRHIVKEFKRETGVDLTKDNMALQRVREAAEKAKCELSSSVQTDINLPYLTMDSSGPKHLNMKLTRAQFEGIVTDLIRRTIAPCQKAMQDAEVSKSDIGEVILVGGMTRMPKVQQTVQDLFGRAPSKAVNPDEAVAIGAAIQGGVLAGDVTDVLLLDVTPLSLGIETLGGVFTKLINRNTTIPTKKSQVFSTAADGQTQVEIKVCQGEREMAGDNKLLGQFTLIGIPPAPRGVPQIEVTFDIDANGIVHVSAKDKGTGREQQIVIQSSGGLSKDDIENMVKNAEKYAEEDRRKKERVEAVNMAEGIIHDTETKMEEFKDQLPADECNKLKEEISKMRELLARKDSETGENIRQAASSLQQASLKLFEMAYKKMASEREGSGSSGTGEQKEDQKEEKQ
T1 sequence (P11021 19-654 limits assumed): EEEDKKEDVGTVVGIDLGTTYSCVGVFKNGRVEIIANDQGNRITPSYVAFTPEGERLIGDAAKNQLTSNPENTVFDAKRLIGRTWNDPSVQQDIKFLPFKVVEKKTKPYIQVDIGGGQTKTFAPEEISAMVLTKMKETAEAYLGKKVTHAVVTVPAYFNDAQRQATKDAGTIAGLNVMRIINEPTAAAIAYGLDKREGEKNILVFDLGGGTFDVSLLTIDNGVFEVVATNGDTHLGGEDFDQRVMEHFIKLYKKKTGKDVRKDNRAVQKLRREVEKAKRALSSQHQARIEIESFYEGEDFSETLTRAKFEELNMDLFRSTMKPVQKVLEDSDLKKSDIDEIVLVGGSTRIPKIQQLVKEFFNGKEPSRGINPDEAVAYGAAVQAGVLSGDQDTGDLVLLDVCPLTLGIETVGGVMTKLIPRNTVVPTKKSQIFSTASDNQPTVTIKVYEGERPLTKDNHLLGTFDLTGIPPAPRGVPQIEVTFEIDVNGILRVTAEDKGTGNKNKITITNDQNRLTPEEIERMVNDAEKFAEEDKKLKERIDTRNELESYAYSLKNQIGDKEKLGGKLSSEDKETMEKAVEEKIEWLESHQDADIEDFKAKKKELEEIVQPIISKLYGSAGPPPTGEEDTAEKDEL
T4 sequence (P11142 2-646 limits assumed): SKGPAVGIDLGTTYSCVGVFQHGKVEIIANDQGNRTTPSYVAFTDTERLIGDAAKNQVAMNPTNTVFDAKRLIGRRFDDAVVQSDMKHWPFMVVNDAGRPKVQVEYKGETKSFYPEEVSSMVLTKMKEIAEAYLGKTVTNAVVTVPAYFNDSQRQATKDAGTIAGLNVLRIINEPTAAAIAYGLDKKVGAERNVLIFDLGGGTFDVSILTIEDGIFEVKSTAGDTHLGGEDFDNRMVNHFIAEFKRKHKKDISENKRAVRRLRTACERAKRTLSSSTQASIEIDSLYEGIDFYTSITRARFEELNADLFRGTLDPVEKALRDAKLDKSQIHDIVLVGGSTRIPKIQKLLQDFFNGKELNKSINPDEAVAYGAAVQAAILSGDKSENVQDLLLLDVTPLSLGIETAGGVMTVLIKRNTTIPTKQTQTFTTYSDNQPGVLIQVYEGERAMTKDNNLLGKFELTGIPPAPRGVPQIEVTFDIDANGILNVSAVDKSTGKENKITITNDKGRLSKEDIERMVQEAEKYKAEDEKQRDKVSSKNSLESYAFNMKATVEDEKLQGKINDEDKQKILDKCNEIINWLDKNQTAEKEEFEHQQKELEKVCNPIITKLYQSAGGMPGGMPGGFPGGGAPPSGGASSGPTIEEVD
T3 sequence (P08670 2-466 limits assumed): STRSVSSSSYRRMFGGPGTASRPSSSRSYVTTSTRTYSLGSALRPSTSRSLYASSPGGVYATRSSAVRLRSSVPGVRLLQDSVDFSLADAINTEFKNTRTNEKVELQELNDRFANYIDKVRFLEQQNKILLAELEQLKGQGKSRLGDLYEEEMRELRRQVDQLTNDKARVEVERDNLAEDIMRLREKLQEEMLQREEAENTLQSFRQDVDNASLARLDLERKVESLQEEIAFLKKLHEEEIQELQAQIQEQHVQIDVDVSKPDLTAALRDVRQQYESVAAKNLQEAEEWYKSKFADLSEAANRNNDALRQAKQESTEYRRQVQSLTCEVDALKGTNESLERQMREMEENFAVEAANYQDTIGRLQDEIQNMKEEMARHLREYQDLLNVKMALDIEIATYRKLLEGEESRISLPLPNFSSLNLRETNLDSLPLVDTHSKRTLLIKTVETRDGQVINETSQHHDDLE

B1: HIV-1 NefSMRmt peptide (H2N-AGFPVAAAGFPVDYKDDDDK-OH) (peptide)
peptide: H-AGFPVAAAGFPVDYKDDDDK-OH
notes: Made commercially; also called SMRmut; HIV-1 NefSMRmut
no binding: all assays above
